The target in assay [1] is T1, extracellular domain of human CD154 (human, UniProt P29965 47-261).
T1 construct: extracellular domain; Colony screening: conjugate with digoxigenin
T1 sequence (looked up): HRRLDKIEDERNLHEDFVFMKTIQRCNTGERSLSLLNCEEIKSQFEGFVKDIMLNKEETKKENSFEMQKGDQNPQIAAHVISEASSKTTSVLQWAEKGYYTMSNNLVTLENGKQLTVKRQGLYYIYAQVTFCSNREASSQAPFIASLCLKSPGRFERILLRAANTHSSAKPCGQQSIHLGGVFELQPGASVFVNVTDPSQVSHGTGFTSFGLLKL
Put plainly: ELISA, CD154 coated on plate, mutein titrated from 2000 nM, anti-Strep-tag II-HRP detection, apparent KD from curve fit. How it is done:
(§1) After washing five times with 100 μl PBST/0.05 per well employing an automated ELISA plate washer, the wells were filled with 100 μl PBST containing 3% w/v non-fat dry milk powder (Vitalia), in order to saturate unspecific binding sites and incubated for one hour at room temperature. After blocking, the microtiter plate was washed two times with 100 μl PBST/0.05 as described above.
Then a dilution series of the muteins from Example 16 in SA-buffer was prepared in PBST starting from 2000 nM concentration and incubated for 1 h at room temperature. Subsequently, plates were washed again five times like above and 20 μl of an anti-Strep-tag® II monoclonal antibody-HRP-conjugate (IBA), diluted 1:1000 in PBST was added to each well and incubated for 1 hour at room temperature. Plates were again washed five times as described above and 20 μl of the fluorogenic HRP-substrate QuantaBlu™ (diluted as described by the manufacturer) was added to detect bound BBP muteins by means of the attached anti-Strep-tag® II monoclonal antibody-HRP-conjugate. After 10 minutes at room temperature fluorescence was excited at a wavelength of 320 nm (±12.5 nm) and measured at 430 nm (±17.5 nm) in a GENiosPlus plate reader.
The resulting binding curves were fitted by non-linear least squares regression as described in Example 8 and are depicted in FIG. 11. […]
On the technique in general: ELISA stands for enzyme-linked immunosorbent assay.

Assay [2] has as its target T2, BSA (UniProt P02769 25-607).
T2 construct: Control protein coated on the ELISA plate; also called unrelated control protein BSA
Briefly: ELISA: BSA coated on the plate as control, BBP mutein titrated 0-2000 nM, detected with anti-Strep-tag II antibody-HRP, fluorescence (Example 17).

The target in assay [3] is T3, RNaseB (UniProt P61823 27-150).
T3 construct: also called unrelated control protein RNaseB
T3 sequence (looked up): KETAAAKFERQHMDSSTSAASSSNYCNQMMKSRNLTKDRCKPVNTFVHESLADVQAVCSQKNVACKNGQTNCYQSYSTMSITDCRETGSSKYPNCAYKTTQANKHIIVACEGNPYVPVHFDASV
Put plainly: ELISA, RNaseB coated on plate, anti-T7-HRP detection. How it is done:
(§2) Afterwards, the wells were washed and blocked as described in Example 8.
(§3) Then, a dilution series of the BBP muteins from Example 11 in SA-buffer was prepared in PBST starting from 1000 nM concentration and incubated for 1 h at room temperature. Subsequently, plates were washed again five times, anti-T7 monoclonal antibody-HRP-conjugate was added and incubated for 1 hour at room temperature followed by washing and addition of fluorogenic HRP-substrate QuantaBlu™ as described in Example 8. After 10 minutes at room temperature fluorescence was excited at a wavelength of 320 nm (±12.5 nm) and measured at 430 nm (±17.5 nm) in a GENiosPlus plate reader.

For assay [4], the target named is T4, type I horse ferritin (horse, UniProt P02791 2-175; Q8MIP0 2-182, limits assumed).
T4 construct: the natural protein is a shell of light and heavy chains
Put plainly: ELISA, ferritin coated on plate, mutein titrated from 1000 nM, anti-T7-HRP detection, apparent KD from curve fit. How it is done:
as §2, §3
The resulting binding curves were fitted by non-linear least squares regression as described in Example 8 and are depicted in FIG. 8. The values obtained for the apparent dissociation constants of the complexes between the BBP muteins and the prescribed target ferritin are summarized in Table 5.

Assay [5] concerns the target T4, type I horse ferritin. Briefly: high-throughput ELISA screening, crude cell extract, ferritin or aldolase coated on plate, anti-T7-HRP detection; Fer-N22 is one of the clones taken on from these 14. How it is done:
For the detection of binding, these cell extracts were tested for their reactivity on the prescribed target type I horse ferri tin as well as the unrelated control protein aldolase in ELISA experiments. Therefore, wells of black Fluotrac 600 ELISA plates (Greiner; 384 well) were coated overnight with 20 μl of a solution of ferritin (Sigma) or aldolase (Roche) at 4° C., each at a concentration of 20 μg/ml in PBS. Plates were washed five times with 100 μl PBST/0.05 per well with an automated ELISA plate washer (Molecular Devices) leaving a residual volume of 10 μl of the washing buffer in each well after the last washing step. Residual binding sites were blocked by incubation with 100 μl PBST/0.05 containing 2% w/v BSA for 2 h at room temperature. Afterwards, plates were again washed five times as described above.
For complex formation between the BBP muteins and the immobilized proteins, the wells were incubated with 10 μl of the blocked cell extract from above for 1 hour at room temperature. […] After 60 minutes at room temperature fluorescence was excited at a wavelength of 320 nm (±12.5 nm) and measured at 430 nm (±17.5 nm) in a GENiosPlus plate reader (Tecan).

Assay [6] deals with fusion construct of the CD4 V-domain and CD4 D1-domain of the human CD4 coreceptor (amino acids 1-184) with … (human, UniProt P01730 26-209). Briefly: ELISA, mutein coated on plate, digoxigenin-conjugated CD4-VD1 titrated from 2000 nM, anti-digoxigenin Fab-AP detection, apparent KD from curve fit. How it is done: as §1
(§4) Then a dilution series of conjugates of digoxigenin and either the prescribed protein target CD4-VD1 or the unrelated control protein RNaseB, both produced as described in Example 25, was prepared in PBST starting from 2000 nM concentration and incubated for 1 h at room temperature. Subsequently, plates were washed again five times like above and 20 μl of an anti-digoxigenin-Fab-fragment-alkaline phosphatase-conjugate (Roche), diluted 1:1000 in PBST was added to each well and incubated for 1 hour at room temperature. Plates were washed again five times as described above and 20 μl of the fluorogenic substrate AttoPhos (Roche; prepared as described by the manufacturer) was added to detect bound CD4-VD1 by means of the attached digoxigenin groups. After 10 minutes at room temperature fluorescence was excited at a wavelength of 430 nm (±17.5 nm) and measured at 535 nm (÷12.5 nm) in a GENiosPlus plate reader.
The resulting binding curves were fitted by non-linear least squares regression as described in Example 8 and are depicted in FIG. 14 and FIG. 15. The values obtained for the apparent dissociation constants of the complexes between the BBP muteins CD4-2C3-K20, CD4-2C3-N22, CD4-2G3-H22, CD4-2G3-L22, CD4-7B4-K21, CD4-7B4-K23, and CD4-7B4-N14 and the prescribed target protein CD4-VD1 as well as for the complexes between the BBP muteins and the control protein RNaseB are summarized in Table 11.

Assay [7] concerns the target T3, RNaseB. Put plainly: ELISA: BBP mutein coated on the plate, digoxigenin-conjugated RNaseB titrated 0-2000 nM, detected with anti-digoxigenin Fab-alkaline phosphatase, fluorescence (Example 27). How it is done:
as §1, §4

Some results are limits rather than exact numbers.

The results in this text go back to patent US20070148201A1 (Pieris, published 2007).

T2 sequence (P02769 25-607 limits assumed): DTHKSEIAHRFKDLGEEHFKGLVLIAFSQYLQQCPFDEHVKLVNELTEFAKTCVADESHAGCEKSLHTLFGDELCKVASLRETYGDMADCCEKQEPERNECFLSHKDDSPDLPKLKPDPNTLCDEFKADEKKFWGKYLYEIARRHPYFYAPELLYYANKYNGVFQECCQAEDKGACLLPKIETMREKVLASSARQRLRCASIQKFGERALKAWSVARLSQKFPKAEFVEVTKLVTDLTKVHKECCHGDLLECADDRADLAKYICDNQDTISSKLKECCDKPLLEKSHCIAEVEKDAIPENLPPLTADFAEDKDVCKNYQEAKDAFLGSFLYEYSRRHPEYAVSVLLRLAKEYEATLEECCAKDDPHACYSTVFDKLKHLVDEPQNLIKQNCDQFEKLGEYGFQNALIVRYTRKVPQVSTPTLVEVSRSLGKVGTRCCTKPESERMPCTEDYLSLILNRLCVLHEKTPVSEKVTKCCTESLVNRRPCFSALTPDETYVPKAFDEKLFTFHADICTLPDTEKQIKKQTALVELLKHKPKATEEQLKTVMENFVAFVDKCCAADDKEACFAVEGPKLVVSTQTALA
T4 sequence (P02791 2-175 limits assumed, chain 1 of 2): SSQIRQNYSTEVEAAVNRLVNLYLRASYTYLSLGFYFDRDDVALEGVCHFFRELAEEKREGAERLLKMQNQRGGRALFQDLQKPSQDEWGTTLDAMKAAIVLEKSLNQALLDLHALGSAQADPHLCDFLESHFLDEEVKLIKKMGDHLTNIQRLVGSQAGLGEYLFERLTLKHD
T4 sequence (Q8MIP0 2-182 limits assumed, chain 2 of 2): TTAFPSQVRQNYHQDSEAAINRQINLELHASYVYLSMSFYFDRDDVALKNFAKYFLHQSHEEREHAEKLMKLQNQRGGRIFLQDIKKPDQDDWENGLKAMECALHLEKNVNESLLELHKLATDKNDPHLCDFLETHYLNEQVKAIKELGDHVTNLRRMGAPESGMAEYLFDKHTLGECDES

B1: BBP mutein CD154-13-10-1 (designed binder)
chain: DVYHDGACPEVKPVDNFDWSQYHGKWWEVAKYPNQIEQGGKCGWAEYTPEGKSVKVSNYHVIYASEDFIEGTAYPVGDSKIGKIYHSLTSSGVTKENVFNVLSTDNKNYIIGYYCGYREAPKGHMDFVWVLSRSMVLTGEAKTAVENYLIGSPVVDSQKLVYSDFSEAACKVNN
Regarding B1, in assay [1], the Kd came out at 89 nM. Further, the binding result in assay [2] is “no binding (tested: 2000 nM)”.

B2: BBP mutein Fer-N22 (designed binder)
chain: DVYHDGACPEVKPVDNFDWSQYHGKWWEVAKYPNGGESPGKCGWAEYTPEGKSVKVSNYHVIKKRERFIEGTAYPVGDSKIGKICHSLTWSGLTKENVFNVLSTDNKNYIIGYYCKYKERKKGHGDFVWVLSRSMVLTGEAKTAVENYLIGSPVVDSQKLVYSDFSEAACKVNN
notes: Tested as expressed from pBBP47: C-terminal T7 tag followed by Strep-tag II
Regarding B2, in assay [3], the binding result is reported as “no binding (tested: dilution series starting from 1000 nM)”. The Kd in assay [4] amounted to 45 nM. In addition, the “signal-to-control ratio (ferritin against aldolase)” value in assay [5] is more than 5.

B3: BBP mutein CD4-2C3-K20 (designed binder)
chain: DVYHDGACPEVKPVDNFDWSQYHGKWWEVAKYPNTSEHSGKCGWAEYTPEGKSVKVSNYHVIKKKERFIEGTAYSAGDSKIGKIYHSLTSVGKTKENVFNVLSTDNKNYIIGYYCSYKEKTKGHGDFVWVLSRSMVLTGEAKTAVENYLIGSPVVDSQKLVYSDFSEAACKVNN
For B3, the Kd in assay [6] amounted to 136 nM. In addition, the binding result in assay [7] was “no binding (tested: 2000 nM)”.

B4: BBP mutein CD4-7B4-K23 (designed binder)
chain: DVYHDGACPEVKPVDNFDWSQYHGKWWEVAKYPNGNELRGKCGWAEYTPEGKSVKVSNYHVINTSEGFIEGTAYPVGDSKIGKIYHSLTNTGMTKENVFNVLSTDNKNYIIGYYCSWEVSKGHHDFVWVLSRSMVLTGEAKTAVENYLIGSPVVDSQKLVYSDFSEAACKVNNS
In the case of B4, the Kd in assay [6] turned out to be 169 nM. The binding result in assay [7] is listed as “no binding (tested: 2000 nM)”.

B5: BBP mutein CD4-2G3-L22 (designed binder)
chain: DVYHDGACPEVKPVDNFDWSQYHGKWWEVAKYPNIAELGGKCGWAEYTPEGKSVKVSNYHVINWNEMFIEGTAYPVGDSKIGKISHSLTKVGQTKENVFNVLSTDNKNYIIGYYCQYSERAKGHLDFVWVLSRSMVLTGEAKTAVENYLIGSPVVDSQKLVYSDFSEAACKVNN
In the case of B5, in assay [6], the Kd stood at 200 nM. In addition, the binding result in assay [7] is “no binding (tested: 2000 nM)”.

B6: BBP mutein CD4-7B4-N14 (designed binder)
chain: DVYHDGACPEVKPVDNFDWSQYHGKWWEVAKYPNRAEIGGKCGWAEYTPEGKSVKVSNYHVIKQWEKFIEGTAYPVGDSKIGKIYHSLTGTGSTKENVFNVLSTDNKNYIIGYYCNYHESRKGHRDFVWVLSRSMVLTGEAKTAVENYLIGSPVVDSQKLVYSDFSEAACKVNN
In the case of B6, in assay [6], the Kd was found to be 177 nM. In addition, the binding result in assay [7] is “no binding (tested: 2000 nM)”.

B7: BBP mutein CD4-2G3-H22 (designed binder)
chain: DVYHDGACPEVKPVDNFDWSQYHGKWWEVAKYPNMTEVKGKCGWAEYTPEGKSVKVSNYHVIREKEWFIEGTAYPVGDSKIGKIYHSLTISGLTKENVFNVLSTDDKNYIIGYYCKYMELWKGHRDFVWVLSRSMVLTGEAKTAVENYLIGSPVVDSQKLVYSDFSEAACKVNN
On to B7, for which, in assay [6], the Kd was 105 nM. In assay [7], the binding result is “no binding (tested: 2000 nM)”.

B8: BBP mutein CD4-2C3-N22 (designed binder)
chain: DVYHDGACPEVKPVDNFDWSQYHGKWWEVAKYPNAKESPGKCGWAEYTPEGKSVKVSNYHVIQRLEGFIEGTAYPVGDSKIGKIYHSLTTWGLTKENVFNVLSTDNKNYIIGYYCGYVEKSKGHPDFVWVLSRSMVLTGEAKTAVENYLIGSPVVDSQKLVYSDFSEAACKVNN
Turning to B8, the Kd in assay [6] amounted to 185 nM. In assay [7], the binding result is on record as “no binding (tested: 2000 nM)”.

B9: BBP mutein CD154-13-10-4 (designed binder)
chain: DVYHDGACPEVKPVDNFDWSQYHGKWWEVAKYPNSHETGGKCGWAEYTPEGKSVKVSNYHVITPHERFIEGTAYPVGDSKIGKIYHSLTWIGTTKENVFNVLSTDNKNYIIGYYCSYSEAGKGHQDFVWVLSRSMVLTGEAKTAVENYLIGSPVVDSQKLVYSDFSEAACKVNN
On to B9, for which the Kd in assay [1] was determined as 174 nM. In addition, the binding result in assay [2] was “no binding (tested: 2000 nM)”.
